Laboratory results as given in publication PMC6021111, “Murine leukemia virus p12 tethers the capsid-containing pre-integration complex to chromatin by binding directly to host nucleosomes in mitosis” (PLoS Pathogens, 2018).

Tested on: cellular proteins of mitotic 293T cells
Assay: SILAC-MS of GST-p12_WT relative to GST-p12_mut14
Format: binding
Settings: log2(H/M) >2.58 SDs from mean in both replicates
Protocol: For SILAC-MS experiments, 293T cells were grown is media containing light (R0K0, ^12C-Arginine and ^12C-Lysine), medium (R6K4, ^13C-Arginine and Lysine-4,4,5,5-d4) or heavy (R10K8, ^13C+^15N-Arginine and ^13C+^15N-Lysine) versions of L-Arginine and L-Lysine amino acids (Pierce) for a minimum of 6 doublings before transient expression of GST-p12 proteins. After performing the glutathione-sepharose pull-down assays equivalent volumes of the beads eluates were pooled and submitted to the Bristol University Proteomics Facility for RP nano-LC-MS/MS analysis. This analysis was performed on an LTQ-Orbitrap Velos mass spectrometer in line with a Dionex Ultimate 3000 nanoHPLC system as described in [53].
Supplementary file ppat.1007117.s002.tif: S2 Fig SILAC results showing no significant difference in protein complexes of Mo-MLV GST-p12_mut14 compared to GST-p12_WT. (Links to Fig 4). GST, Mo-MLV GST-p12_mut14 or GST-p12_WT were transiently-expressed in 293T cells cultured in light (L), medium (M) or heavy (H) SILAC media, respectively. GST-protein complexes were precipitated from mitotic cell lysates and analysed by LC-MS/MS. (A) To identify proteins enriched in the GST-p12_WT (H) sample relative to the GST-p12_mut14 (M) sample, log2(H/M) silac ratios of each set of MS hits (FDR <5%) from replicates (R1 and R2) were plotted as a frequency distribution. […]

B1: GST-p12_WT: N-terminally GST-tagged Mo-MLV p12 (protein)
chain: PALTPSLGAKPKPQVLSDSGGPLIDLLTEDPPPYRDPRPPPSDRDGNGGEATPAGEAPDPSPMASRLRGRREPPVADSTTSQAF
modifications: left off: GST, N-terminal, kept
notes: N-terminally GST-tagged Mo-MLV p12
Q: Which “proteins significantly enriched vs GST-p12_mut14” value does the source give for B1 here?
A: no proteins that passed the criteria for significant enrichment
